Measured values reported in patent US12503518B2, “Heparanase-neutralizing A54 monoclonal antibody” (TECHNION RESEARCH & DEVELOPMENT FOUNDATION LIMITED, priority 2020, dated 2025).

Key:
[1] = target: T1, recombinant human heparanase (Homo sapiens, UniProt Q9Y251); experiment: heparanase activity assay: release of HS degradation fragments from 35S-labeled ECM; assay type: biochemical
T1 construct: purified recombinant active heparanase (200 ng) was pre incubated with the various hybridoma supernatants; recombinant active heparanase (200 ng) was preincubated with control mouse IgG or purified mAb A54
T1 sequence (Q9Y251 158-543 limits assumed): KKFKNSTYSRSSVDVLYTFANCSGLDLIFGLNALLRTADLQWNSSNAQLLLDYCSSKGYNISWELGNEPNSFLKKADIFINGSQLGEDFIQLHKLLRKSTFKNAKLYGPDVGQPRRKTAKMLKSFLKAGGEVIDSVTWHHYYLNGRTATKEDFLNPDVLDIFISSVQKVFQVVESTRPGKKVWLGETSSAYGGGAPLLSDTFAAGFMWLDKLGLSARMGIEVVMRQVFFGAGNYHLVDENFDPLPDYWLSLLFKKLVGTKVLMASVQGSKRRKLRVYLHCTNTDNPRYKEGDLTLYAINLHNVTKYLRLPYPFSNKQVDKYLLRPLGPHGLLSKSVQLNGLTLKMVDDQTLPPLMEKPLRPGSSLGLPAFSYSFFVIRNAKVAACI
T1 sequence (Q9Y251 36-109 limits assumed): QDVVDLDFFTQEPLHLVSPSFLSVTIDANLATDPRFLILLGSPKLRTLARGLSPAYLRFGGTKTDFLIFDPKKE
Experimental: Cell lysates, heparanase activity and protein blotting. Preparation of cell lysates, protein blotting, and measurement of heparanase enzymatic activity were carried out as described (Arvatz et al. Faseb J 2011; 24(12):4969-76). For inhibition studies, highly purified recombinant heparanase (200 ng) was pre-incubated with the indicated antibody ([…]) for 30 min on ice under neutral pH conditions (pH 7.2) before being added to ^35S-labelled ECM, used as a naturally produced substrate for heparanase (Gingis-Velitski et al. 2007, ibid.).
ECM degradation assay. […] More detail about the preparation of this substrate and its use for the heparanase assay can be found in: Current Protocols in Cell Biology (Vlodavsky 2001; pp. 10.4.1-10.4.14). Briefly, sulfate [^35S] labeled ECM coating the surface of 35 mm tissue culture dishes, is incubated (4 h, 37° C., pH 6.0, 1 ml final volume) with recombinant human heparanase (200 ng/ml) in the absence and presence of the A54 mAb. The reaction mixture contains: 50 mM NaCl, 1 mM DTT, 1 mM CaCl2), and 10 mM buffer Phosphate-Citrate, pH 6.0. To evaluate the occurrence of proteoglycan degradation, the incubation medium is collected and applied for gel filtration on Sepharose 6B columns (0.9×30 cm). Fractions (0.2 ml) are eluted with PBS and counted for radioactivity. […]
In order to select the hybridoma clone that best inhibits heparanase enzymatic activity, supernatants of the various hybridomas, raised against the 65 kDa latent heparanase protein, were collected, pre-incubated with recombinant heparanase and examined for the capacity to inhibit the release of heparan sulfate (HS) degradation fragments from sulfate labeled ECM. […] The mixture was then applied onto ^35S-labeled ECM-coated dishes and heparanase activity was determined as described under “Materials and Methods” above.
Next, the ability of purified mAb A54 to inhibit heparanase enzymatic activity was examined. […] The mixture was then applied onto dishes coated with ^35S-labeled ECM, and heparanase enzymatic activity was determined as described in ‘Methods’.

LPS-induced sepsis = LPS-induced sepsis survival; assay type: in vivo, C57BL/6 mice; conditions: 500 μg/mouse 30 min before LPS (15 mg/kg, i.p.); monitored 8 days
Experimental: In subsequent studies, the effect of mAb A54 on LPS-induced sepsis, was investigated. C57BL/6 mice (n=8) were treated with A54 mAb (500 μg/mouse) or Roneparstat (SST) (1.2 mg/mouse) or PBS as control, 30 min before LPS injection (15 mg/kg, i.p.). SST was given once again (1.2 mg/mouse) 16 hours after LPS administration. Survival of mice was monitored every 12 h for 8 days (FIG. 10).

[2] = system: MPC-11 mouse myeloma cells; experiment: MPC-11 myeloma tumor growth in syngeneic Balb/c mice; assay type: in vivo
Experimental: MPC-11 myeloma. Mouse MPC-11 myeloma cells are detached with trypsin/EDTA, washed with PBS, brought to a concentration of 5×10^5 cells/0.2 ml and inoculated subcutaneously at the right flank of 6-8-weeks-old Balb/c mice. Three days after cell inoculation, mice are randomly assigned to 2 cohorts (6 mice each) receiving (a) vehicle (PBS); and (b) A54 mAb (500 μg/mouse, 3 times/week. Xenograft size is determined on day 7, 10 and 14 by externally measuring tumors in 2 dimensions using a caliper. At the end of the experiment, mice are sacrificed and tumor xenografts are removed and weighed.
Briefly, Balb/c mice were inoculated (s.c.) with MPC-11 mouse myeloma cells (0.5×10^6). Treatment with mAb A54 (250 or 500 μg/mouse every other day) was initiated two days after cell inoculation. Control cells were administrated with PBS. Xenograft size was determined twice a week by externally measuring the tumors in two dimensions using a caliper, and tumor volume was calculated (FIG. 6A). At the end of the experiment (Day 14) xenografts were removed, weighed (FIG. 6B), fixed in formalin and photographed (FIG. 6C). […] The above results imply that the development of primary tumors can be restrained by the anti-heparanase mAb A54.

B1: mAb A54: heparanase-neutralizing murine monoclonal antibody, IgG1-Kappa; VH SEQ ID NO: 7, VL SEQ ID NO: 8; binds HBD-II of heparanase (antibody, listed as Mus musculus, V domains shown)
VH: QVQLQQSGAELAKPGASVRMSCKASGYTFTNYWMHWVKQRPGQGLEWIGYINPTTGYTEYNQKFKDKATLTADKSSSTAYMQLSSLTSEDSAVYYCARGGAGYDYDEDYAMDYWGQGTSVTVSS
VL: DIVLTQSPASLAVSLGQRATISCRASESVEYFGTSYMNWYQQKPGQPPKLLIYLASILESGIPARFSGSGSGTDFTLNIHPVEEEDAATYYCQQSNEDPYTFGGGTKLEIK
inhibition of the enzyme ([1]; 0.1 μg/ml antibody, preincubated 1 h with active heparanase (200 ng), FIG. 3B): ~75%
inhibition of heparanase enzymatic activity ([1]; 1 μg/ml antibody, preincubated 1 h with active heparanase (200 ng), FIG. 3A): complete inhibition
decrease in the amount of released sulfate labeled HS degradation products ([1]; hybridoma supernatant pre-incubated 2 h on ice with recombinant active heparanase (200 ng), FIG. 1): ~80%
survival after LPS injection (LPS-induced sepsis): effectively protects mice from LPS-induced sepsis
attenuation of myeloma tumor growth ([2]; 250 or 500 μg/mouse every other day from day 2, day 14, vs PBS): 4 fold
dose dependence of tumor growth attenuation ([2]; 250 vs 500 μg/mouse every other day): higher dose of antibody was more effective
